Measured values taken from US20250340637A1 (ABPRO, published 2025).

T1: CynoCD3E (cyno, UniProt Q95LI5 22-117, limits assumed)
T1 construct: Recombinant analyte in SPR and antigen in ELISA; The construct is not described; also called cynomolgus CD3 epsilon
T1 sequence (looked up): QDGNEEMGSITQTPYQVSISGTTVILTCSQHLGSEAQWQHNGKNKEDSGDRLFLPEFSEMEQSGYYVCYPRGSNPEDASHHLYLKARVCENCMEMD


Legend:
HuCD3E [1] = molecular target: T2, HuCD3E (Homo sapiens, UniProt P07766 23-126, limits assumed); assay: SPR, Biacore 8K; CD3 Affinity column: Hi
T2 construct: Recombinant analyte in SPR and antigen in ELISA; also called human CD3; human CD3 epsilon

HuCD3E [2] = molecular target: T2, HuCD3E; assay: SPR, Biacore 8K; CD3 Affinity column: Med; lower end of the range
HuCD3E [3] = molecular target: T2, HuCD3E; assay: SPR, Biacore 8K; CD3 Affinity column: Med; upper end of the range
HuCD3E [4] = molecular target: T2, HuCD3E; assay: as above; remark: listed apart in the source
Procedure: (§1) Initially, the affinity measurement of the anti-CD3 clones were determined using a Surface Plasmon Resonance (SPR) biosensor, Biacore 8K (GE Healthcare). The equilibrium dissociation constant (KD) was calculated from the ratio of kd over ka. To determine the contribution of a specific residue to antibody affinity and expression, paratope mapping was performed by screening of NNK libraries. In brief, the VH and VL of the parental antibody were searched by using NCBI Ig-Blast (www.ncbi.nlm.nih.gov/projects/igblast/) and CDRs were defined by the KABAT delineation system. All residues within CDRs were defined and mutated by NNK method. Each individual NNK library was generated per residue based on the FASEBA platform with a theoretical diversity at 20. The DNA encoding both heavy chain and light chain were inserted into a mammalian expression vector, transfected into CHO-S cells, and stable clones of highest expression were selected. Supernatants were collected from shaker flasks and purified on protein A affinity chromatography.
(§2) Affinity ranking. Binding between the parental and affinity-tuned bispecific antibodies and human and cyno target proteins (HER2 and CD3) was validated by ELISA, and a Biacore 8K was used to study the kinetics of the interaction between the antigen and the bispecific antibodies.

HuCD3E [5] = molecular target: T2, HuCD3E; assay: SPR, Biacore 8K; CD3 Affinity column: Med; lower end of the range; remark: listed apart in the source
HuCD3E [6] = molecular target: T2, HuCD3E; assay: SPR, Biacore 8K; antibody captured, CD3E as analyte
Procedure: as §1, §2

CynoCD3E = molecular target: T1, CynoCD3E; assay: as above
Procedure: as §1, §2

T2 sequence (P07766 23-126 limits assumed): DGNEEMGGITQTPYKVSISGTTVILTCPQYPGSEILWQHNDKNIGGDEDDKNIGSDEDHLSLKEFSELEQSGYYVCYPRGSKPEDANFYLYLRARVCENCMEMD

Row | Binder | Kd (HuCD3E [2]) [nM] | Kd (HuCD3E [3]) [nM] | Kd (HuCD3E [4]) [nM] | Kd (HuCD3E [5]) [nM] | also measured
1 | ABP100s.12.0 (antibody, V domains shown) VH: EVQLLESGGGLVQPGGSLRLSCAASGFTFNTYAMNWVRQAPGKCLEWVSRIRSKYNNYATYYADSVKDRFTISRDNSKNTLYLQMNSLRAEDTAVYYCAKHGNFGNSYVSWFAYWGQGTTVTVSS VL: QAVVTQEPSLTVSPGGTVTLTCRSSTGAVTTSNYANWFQQKPGQAPRTLIYGTNKRAPWTPARFSGSLLGGKAALTLSGAQPEDEAEYYCALWYSNLWVFGCGTKLTVL |  |  |  |  | Kd (HuCD3E [1]): < 10 nM
2 | ABP100s.12.5 (antibody, V domains shown) VH: EVQLLESGGGLVQPGGSLRLSCAASGFTFNTYAMNWVRQAPGKCLEWVSRIRSKYNNYATYYADSVKDRFTISRDNSKNTLYLQMNSLRAEDTAVYYCAKHGNFGNSYVSWFAYWGQGTTVTVSS VL: QAVVTQEPSLTVSPGGTVTLTCRSSTGAVTTSNYANWFQQKPGQAPRTLIYGTNKRAPWTPARFSGSLLGGKAALTLSGAQPEDEAEYYCALWYSNLWVFGCGTKLTVL |  |  |  |  | Kd (HuCD3E [1]): < 10 nM
3 | 32G4-V8-v5.2 (antibody, V domains shown) VH: EVQLVESGGGLVQPGGSLKLSCAASGFTFNTYAMNWVRQAPGKGLEWVARIRSKYNNYATYKADSVKDRFTISRDDSKNTAYLQMNSLKTEDTAVYYCVRHGNFGNSYVSWFAYWGQGTLVTVSS VL: QTVVTQEPSLTVSPGGTVTLTCRSSTGAVTTSNYANWVQQKPGQAFRGLIGGTNKRAPGVPARFSGSLLGGKAALTLSGVQPEDEAIYFCALWYSNLWVFGGGTKLTVL | ≥ 10 | ≤ 100 |  |  | 
4 | ABP100s.11.5 (antibody, V domains shown) VH: EVQLLESGGGLVQPGGSLRLSCAASGFTFNTYAMNWVRQAPGKGLEWVSRIRSKYNNYATYYADSVKDRFTISRDNSKNTLYLQMNSLRAEDTAVYYCAKHGNFGNSYVSWFAYWGQGTTVTVSS VL: QAVVTQEPSLTVSPGGTVTLTCRSSTGAVTTSNYANWFQQKPGQAPRTLIYGTNKRAPWTPARFSGSLLGGKAALTLSGAQPEDEAEYYCALWYSNLWVFGGGTKLTVL |  |  |  |  | Kd (HuCD3E [1]): < 10 nM
5 | 47D10-V7-v5.3 (antibody, V domains shown) VH: EVQLVESGGGLVQPGGSLKLSCAASGFTFNTYAMNWVRQAPGKGLEWVARIRSKYNNYATYYADKVKDRFTISRDDSKNTAYLQMNSLKTEDTAVYYCVRHGNFGNSYVSWFAYWGQGTLVTVSS VL: QTVVTQEPSLTVSPGGTVTLTCRSSTGAVTTSNYANWVQQKPGQAFRGLIGGTNKRAPGVPARFSGSLLGGKAALTLSGVQPEDEAIYFCALWYSNLWVFGGGTKLTVL | ≥ 10 | ≤ 100 |  |  | 
6 | 47D10-V7-v5.4 (antibody, V domains shown) VH: EVQLVESGGGLVQPGGSLKLSCAASGFTFNTYAMNWVRQAPGKGLEWVARIRSKYNNYATYYWDSVKDRFTISRDDSKNTAYLQMNSLKTEDTAVYYCVRHGNFGNSYVSWFAYWGQGTLVTVSS VL: QTVVTQEPSLTVSPGGTVTLTCRSSTGAVTTSNYANWVQQKPGQAFRGLIGGTNKRAPGVPARFSGSLLGGKAALTLSGVQPEDEAIYFCALWYSNLWVFGGGTKLTVL | ≥ 10 | ≤ 100 |  |  | 
7 | 47D10-V7-v5.2 (antibody, V domains shown) VH: EVQLVESGGGLVQPGGSLKLSCAASGFTFNTYAMNWVRQAPGKGLEWVARIRSKYNNYATYKADSVKDRFTISRDDSKNTAYLQMNSLKTEDTAVYYCVRHGNFGNSYVSWFAYWGQGTLVTVSS VL: QTVVTQEPSLTVSPGGTVTLTCRSSTGAVTTSNYANWVQQKPGQAFRGLIGGTNKRAPGVPARFSGSLLGGKAALTLSGVQPEDEAIYFCALWYSNLWVFGGGTKLTVL | ≥ 10 | ≤ 100 |  |  | 
8 | 32G4-V8-v5.4 (antibody, V domains shown) VH: EVQLVESGGGLVQPGGSLKLSCAASGFTFNTYAMNWVRQAPGKGLEWVARIRSKYNNYATYYWDSVKDRFTISRDDSKNTAYLQMNSLKTEDTAVYYCVRHGNFGNSYVSWFAYWGQGTLVTVSS VL: QTVVTQEPSLTVSPGGTVTLTCRSSTGAVTTSNYANWVQQKPGQAFRGLIGGTNKRAPGVPARFSGSLLGGKAALTLSGVQPEDEAIYFCALWYSNLWVFGGGTKLTVL | ≥ 10 | ≤ 100 |  |  | 
9 | ABP100s.10.6.3 (antibody, V domains shown) VH: EVQLVESGGGLVQPGGSLKLSCAASGFTFNTYAMNWVRQAPGKCLEWVARIRSKYNNYATYYADKVKDRFTISRDDSKNTAYLQMNSLKTEDTAVYYCVRHGNFGNSYVSWFAYWGQGTLVTVSS VL: QTVVTQEPSLTVSPGGTVTLTCRSSTGAVTTSNYANWVQQKPGQAFRGLIGGTNKRAPGVPARFSGSLLGGKAALTLSGVQPEDEAIYFCALWYSNLWVFGCGTKLTVL |  |  | ≤ 100 | ≥ 10 | 
10 | VH2 (SEQ ID NO: 21) + VL6 (SEQ ID NO: 19) (antibody, V domains shown, Humanized SP34 anti-CD3 variant; the text around it speaks of full-length bispecific antibodies; The sample heated at 42° C. is the same molecule and is marked under assay; also called VH2 + VL6) VH: EVQLVESGGGLVQPGGSLKLSCAASGFTFNTYAMNWVRQASGKGLEWVARIRSKYNNYATYYADSVKDRFTISRDDSKNTAYLQMNSLKTEDTAVYYCVRHGNFGNSYVSWFAYWGQGTLVTVSS VL: QTVVTQEPSLTVSPGGTVTLTCRSSTGAVTTSNYANWVQQKPGQAFRGLIGGTNKRAPGVPARFSGSLLGGKAALTLSGVQPEDEAIYFCALWYSNLWVFGGGTKLEIK |  |  |  |  | Kd (HuCD3E [6]): 1.01 nM; koff (HuCD3E [6]): 0.000357 s⁻¹; kon (HuCD3E [6]): 352000 M⁻¹ s⁻¹; Kd (CynoCD3E): 1.7 nM; koff (CynoCD3E): 0.000821 s⁻¹; kon (CynoCD3E): 483000 M⁻¹ s⁻¹
11 | ABP100s.10.5.4 (antibody, V domains shown) VH: EVQLVESGGGLVQPGGSLKLSCAASGFTFNTYAMNWVRQAPGKCLEWVARIRSKYNNYATYYWDSVKDRFTISRDDSKNTAYLQMNSLKTEDTAVYYCVRHGNFGNSYVSWFAYWGQGTLVTVSS VL: QTVVTQEPSLTVSPGGTVTLTCRSSTGAVTTSNYANWVQQKPGQAFRGLIGGTNKRAPGVPARFSGSLLGGKAALTLSGVQPEDEAIYFCALWYSNLWVFGCGTKLTVL |  |  | ≤ 100 | ≥ 10 | 
12 | ABP100s.10.5.3 (antibody, V domains shown) VH: EVQLVESGGGLVQPGGSLKLSCAASGFTFNTYAMNWVRQAPGKCLEWVARIRSKYNNYATYYADKVKDRFTISRDDSKNTAYLQMNSLKTEDTAVYYCVRHGNFGNSYVSWFAYWGQGTLVTVSS VL: QTVVTQEPSLTVSPGGTVTLTCRSSTGAVTTSNYANWVQQKPGQAFRGLIGGTNKRAPGVPARFSGSLLGGKAALTLSGVQPEDEAIYFCALWYSNLWVFGCGTKLTVL |  |  | ≤ 100 | ≥ 10 | 
13 | ABP100s.10.5.2 (antibody, V domains shown) VH: EVQLVESGGGLVQPGGSLKLSCAASGFTFNTYAMNWVRQAPGKCLEWVARIRSKYNNYATYKADSVKDRFTISRDDSKNTAYLQMNSLKTEDTAVYYCVRHGNFGNSYVSWFAYWGQGTLVTVSS VL: QTVVTQEPSLTVSPGGTVTLTCRSSTGAVTTSNYANWVQQKPGQAFRGLIGGTNKRAPGVPARFSGSLLGGKAALTLSGVQPEDEAIYFCALWYSNLWVFGCGTKLTVL |  |  | ≤ 100 | ≥ 10 | 
14 | ABP100s.10.6.2 (antibody, V domains shown) VH: EVQLVESGGGLVQPGGSLKLSCAASGFTFNTYAMNWVRQAPGKCLEWVARIRSKYNNYATYKADSVKDRFTISRDDSKNTAYLQMNSLKTEDTAVYYCVRHGNFGNSYVSWFAYWGQGTLVTVSS VL: QTVVTQEPSLTVSPGGTVTLTCRSSTGAVTTSNYANWVQQKPGQAFRGLIGGTNKRAPGVPARFSGSLLGGKAALTLSGVQPEDEAIYFCALWYSNLWVFGCGTKLTVL |  |  | ≤ 100 | ≥ 10 | 
15 | 32G4-V8-v5.3 (antibody, V domains shown) VH: EVQLVESGGGLVQPGGSLKLSCAASGFTFNTYAMNWVRQAPGKGLEWVARIRSKYNNYATYYADKVKDRFTISRDDSKNTAYLQMNSLKTEDTAVYYCVRHGNFGNSYVSWFAYWGQGTLVTVSS VL: QTVVTQEPSLTVSPGGTVTLTCRSSTGAVTTSNYANWVQQKPGQAFRGLIGGTNKRAPGVPARFSGSLLGGKAALTLSGVQPEDEAIYFCALWYSNLWVFGGGTKLTVL | ≥ 10 | ≤ 100 |  |  | 
16 | ABP100s.10.6.4 (antibody, V domains shown) VH: EVQLVESGGGLVQPGGSLKLSCAASGFTFNTYAMNWVRQAPGKCLEWVARIRSKYNNYATYYWDSVKDRFTISRDDSKNTAYLQMNSLKTEDTAVYYCVRHGNFGNSYVSWFAYWGQGTLVTVSS VL: QTVVTQEPSLTVSPGGTVTLTCRSSTGAVTTSNYANWVQQKPGQAFRGLIGGTNKRAPGVPARFSGSLLGGKAALTLSGVQPEDEAIYFCALWYSNLWVFGCGTKLTVL |  |  | ≤ 100 | ≥ 10 | 
